Experimental data published in a protein production outcome set (Wang et al. 2014).

Test: label from the status in PepcDB records

Sequence | protein production
MAFESAGAGELFLLGRLLFGGVLAFMGLNHFQNAGQMAPYAEAKGLPAPVASVYGSGGLLLVSGVLVILGAYPVIAAGALATFLVASAVMMHNFWAVPDDQMQDEMTQFLKNIALAGGALSLLAVAGTSWPYTVGLSLF | failed
MAFKVVISDKEKSVQMEVDPSESRGLIGLTIGDEFDGSIIGLSGYKLKITGGSDKNGFPMKKTVPGARRIRSLVSGGVGYKPRRDGERRRKTFRGNTISDDIVQINTVVIEKGEKPLEELLGADEELEHHHHHH | failed
MAFPEYSPAASAATFADLQIHPRVLRAIGDVGYESPTAIQAATIPALMAGSDVVGLAQTGTGKTAAFAIPMLSKIDITSKVPQALVLVPTRELALQVAEAFGRYGAYLSQLNVLPIYGGSSYAVQLAGLRRGAQVVVGTPGRVIDHLERATLDLSRVDFLVLDEADEMLTMGFADDVERILSETPEYKQVALFSATMPPAIRKLSAKYLHDPFEVTCKAKTAVAENISQSYIQVARKMDALTRVLEVEPFEAMIVFVRTKQATEEIAEKLRARGFSAAAISGDVPQAQRERTITALRDGDIDILVATDVAARGLDVERISHVLNYDIPHDTESYVHRIGRTGRAGRSGAALIFVSPRELHLLKAIEKATRQTLTEAQLPTVEDVNTQRVAKFADSITNALGGPGIELFRRLVEEYEREHDVPMADIAAALAVQCRGGEAFLMAPDPPLSRRNRDQRRDRPQRPKRRPDLTTYRVAVGKRHKIGPGAIVGAIANEGGLHRSDFGQIRIGPDFSLVELPAKLPRATLKKLAQTRISGVLIDLRPYRPPDAARRHNGGKPRRKHVG | failed
MAFQLHPRLQQDCIVLGNLPLCKVLLIKEDIGPWLILVPRIEELKEIHHMTDEQQIQFIKESSAVAQLLEDNFSPDKINIGALGNLVPQLHIHHIARFTTDVAWPGPVWGNTTGVIRAQSSQTQLVDLLRDKLSNISGFKRLEHHHHHH | not failed
MAFRYEHQEPGSRVISGGRDHSNRLLERLGFTVIDGRPTTVEGERAWRLAVWSHLQLTEDLSQVPPGVLRAFGVYGGGQGIWMDKARTDAVHEGGITMGVLHTGAHYPDEISDNDVIYHYPTTGRGPGRDESEVAATKAAATLKLPIFVIAKPTPRSSVRIVRLAWVEGWEERSRIFLISFGDSRPEHLLTEDHSDNQPFSLTGNRSRSSRRNVRERPGQRRFKLRVFQRYGPRCPLSGIAVPEMIEAAHLRPDAEDGTDDPRNGLPLNAALHRAYDAYLFAIEPETLSVVTRPQGPTIEELGIFTPHLRELPRRPHTEALRWRYREWQLRIGTQG | failed
MAFTESDVYNNEAFFKQYMKRRYRENSPNELIEKPAFFQLIGDVKGKKILDLGCGDAIFGKELLEKDCHSYTGIEGSELMYEKAKKQLENKNGIVHFLNLKDYTYPPATFDLVTSRLALHYIEHLPIIFQNVYETLKTNGTFTFSVQHPVITSSFESLQTSGKRTSWLVDDYFKTGKRVEPWIDQKVIKYHRTTEEYFTLLQQAGFTITNLKEATPNQTYFQSAEEYERRLRIPLFLLFSCRKLEHHHHHH | not failed
MAGETPEQGEGRIISGRYRLLRTLGAGGMGRVWLAYDAELACEVAVKEIALPDLPIDASEPVQRIARARSEARNAARLRGHPHVATVHDVVVHEGLPWIVMEHVPDAIDLQAVVRRSGPLTPARTARIGVAVLDALTAGHRIGILHRDVKPANILLAPDASGDPYARVLLTDYGIALQPESREPRLTATAGILGTPGYLAPERARGEPPTPAADLFSLGATLYATVEGRGPFDRHGEYATLTALLGEEPTPPVRAGELGAVLHGLLIKDPVRRLAPEAVARGLEAVARAAPGEGFGPPPGWGSAPSVGQGFGPPPQGFGPPPDGFGPPSGTPSVSPPSAEGATTAPGAPGAPQVSAPGTPQTPGAPRTPHTPHTPQTPAGGPGTPPGSPSAYNPWRPTPPSGPYDPGNPYASSPSSPYAGTGAPAAYEGGPAYFPPRPSPRRKSAAALVALVVAAALVVTGGIWAALSLTGGPTGDGGGTTGQRAKKSPPVSGPQSTKPAGPVLPYGEQVGLTEPLQAGDCVRAVWSGAAFKSVPNLGVVDCADDWPDGQVVAVDTATDYADARDRGARRCAGQSQATADALPDAGVYAVAPTKEGFTAASGGTACLVLGRHAAIGGEVGRFRDTGTDLWVGQMSIGDCWIYKEEKDSYKAPLSDCAQPHTDQVIGAVSAPKNMDYKKGVDNGNKLCGNKFESSWAPGPARQVFGWVADKEDWNDGFDKVVCTVRRSDGAETSGKISAPGAV | failed
MAGFMKNAMSYLGMSDVAEGEDDFEDDVDTGETSFDSDHSVTPMPSSSASASTPSAPREQSNPFQGGRVSRITTIHPKTYDDAQMVGRAIRDGIPVVLNLTGVAEAVAYRIVDFSAGVVFGVRGSIERVTPRVFLLSPAQVNIKVEEPEDKGPAHDLFAD | failed
MAGGAVSKGNVIVGLFRKRTSLLITSILLGLIGLPSLGVLDIGNLARAEKAATNAPSPTTPDIKPSELKPAYPASAPPPRVDPLPDERDMQERVVEIDYRVSNLLGDFAGNLWVGSWRGLSRIDPKTGKILARVSLPNVAIGALAQDKVGRLWVGTYEGLKRVEPRTNEISAQNLFLPSKRVLSLLTDKRGYLWVGTDNGLALVSPDQGLIMTTVKNLPGVSGNTLTLDADGQLWTGTLDGVVRINTASALIMKRINDLPGTTVQALAISPEGLIWAGMPNNLLVINPKTGVVLRSVTRLRGRNVTAVRFAKDGSVWVGTHNGLLRLNPNTGAVLDEVAGLPSSRVLSLMPDVANKLWIGTSEGLAWLMPKMDKAKPHLAFSRLVK | failed
MAGMDNLIAIAAAMLYLLSIATIVPGLVNQTGIRAKTVFISAAIALLFHGWLLSDLILHSSGQNLSILNVASLISFIISLAMSLAMFKTRLWFLLPVAYSFSAINLSAATFLPGTFITHLESDPKLLLHISLALFSYSTLSIGALYALQLAWLDHKLKSKKVFSINPNLPPLLLVERQLFKIILIGNLLLTGTLLTGFIFVQDMFAQGKAHKGILSFVAWIVYSILLWGHYRKGWRGKKVTWFAVAGATLLTLAYFGSRFVREIILR | failed
MAGNFWQSSHYLQWILDKQDLLKERQKDLKFLSEEEYWKLQIFFTNVIQALGEHLKLRQQVIATATVYFKRFYARYSLKSIDPVLMAPTCVFLASKVEEFGVVSNTRLIAAATSVLKTRFSYAFPKEFPYRMNHILECEFYLLELMDCCLIVYHPYRPLLQYVQDMGQEDMLLPLAWRIVNDTYRTDLCLLYPPFMIALACLHVACVVQQKDARQWFAELSVDMEKILEIIRVILKLYEQWKNFDERKEMATILSKMPKPKPPPNSEGEQGPNGSQNSSYSQS | not failed
MAGPTLLKESGPREVFCGLTSIVWLHRRMPDAFFLVVGSRTCAHLIQSAAGVMIFAEPRFGTAILSERDLAGLADAHEELDRVARELLQRRPEIRTLFLVGSCPSEVIKLDLARAAERLNDELQGRVRVVNYSGSGIETTFTQGEDGALAALVPLLPSSAERQLLLVGTLADAVEDRLIHLFGRLGIDRVRSLPPRQSTALPPVGPGTTVLLTQPFLTDTARLLRNRGATVLTAPFPLGAEGSRRWMEAAAQAFEVAPSHVATVLDPLMERARIALEPHREVLAGKRIFLLPESQLELPLARFLQRECGMELVEVGTPYLNREQMAEELALLPEGTPVMEGQHVELQLDRVRDSAPDLVVCGMGLANPLEAEGIATKWSIELVFSPIHGIDQAGDLAELFSRPLRRRQLIHPGLHPTQPDQPVHA | failed
MAGRVHPRQLAFSLPHAESLSRDNFLEGPANAAGLALIDGWPEWPNRIMWLAGPEGSGKSHLAAIWAEEAGARSTTANALSAAGVPGALATGALVVEDLKAKDFDERALFHLMNLAREDGAYVLFTGRDVPAALDIELNDLRSRLRAVPVVMLLPPDDQLFRGLIVKFCADRQLTVDESVVSYLATRLERSSAAARQAVELLDSEALRLGRPVTRALAAELLRDALEHHHHHH | not failed
MAGSGVPSHRSMVIKVSVFAVVMLLVAAGLVVVFGDFRFGPTTVYHATFTDASRLKAGQKVRIAGVPVGSVKAVKLNPDHSIDVAFAIDRSYTLYSSTRAVIRYENLVGDRFLEITSGPGELRKLPPGGTINVAHTQPALDLDALLGGLRPVLKGFDADKINTITSAVIELLQGQGGPLANVLADTGAFSAALGARDQLIGEVITNLNAVLATVDAKSAQFSASVDQLQQLVSGLAKNRDPIAGAISPLASTTTDLTELLRNSRRPLQGILENARPLATELDNRKAEVNNDIEQLGEDYLRLSALGSYGAFFNIYFCSVTIKINGPAGSDILLPIGGQPDPSKGRCAFAK | failed
MAGTNSERELLTEGPAIILAFPQLGENIGMVARAMANFGLSELRLVSPRDGWPSEKARSAASRADHVIDGAKLYETLEEALADLNFVYATTARDRDGFKPVRSPIVAARELRHRFKEGEKVGIIFGRERTGLTNAEVALADEIVTFPVNPAFASLNLAQAVLLMSYEWLKTGMTSEDETSFQASQQRPATKEQLHGLCEHLEEA | failed
MAGVITGFAIILSVIGVGFLLAKLGVINDDKQRLVLNRIAFYAATPALLFNVVARSDPSALISPVIVVTFVATIVTAAVYCVISAIFFKKDIATTATGAAASAYVNSNNIGLPVSIYVLGTGAYVAPILVMQMVIFAPMILAALTSGDVKGSRGQKIWAAVKGSLLSPIVLASIAGLIVCLLEIQLPAAVMEPTIILGGASIPLILMSFGASLPSTNVLASKADRPSVLTATAIKIVGMPAITWLIAKAFGLEGDYLYAAVILAALPAAQNVYNYAATYRKGEIVARDTVFLTTFLALLGMLGIAALFGR | not failed
MAHFSARLKLLSSNDGLSFGVDSRDQFRQSLYMAGGGSPLVPIRMSRLKFCARIFSSYSFPYKRKKIRDLDNTEKNLDIDEDNDEWDFDGDDDGLETDDHLSCFRGLVLDISYRPVNVVCWKRAICLEYMDKADVLEYYDQTVSSPTGSFYIPAVLRVPHLLQVVKRRRVKNSLSRKNILLRDDYTCQYCSSRENLTIDHVMPVSRGGEWTWQNLVAACSRCNSRKGQKTADEAHMKLLKVPKEPKDYDIVAIPLTNAAIRMLRSNKGMPEEWRQYLAKPLSET | failed
MAHNYLLEIGLEEIPAHVVTPSIKQLVQKVTAFLKENRLTYDSIDHFSTPRRLAIRINGLGDQQPDIEEDAKGPARKIAQDADGNWTKAAIGFTRGQGLTVDDITFKTIKGTDYVYVHKLIKGKMTKEILTGLKEVVESINFPTMMKWANFDFKYVRPIRWLVSILDEEVLPFSILDVTAGRRTEGHRFLGEAVELANAEEYEAKLHDQFVIVDADERKQLISNQIKAIAESNRWNVTPNPGLLEEVNNLVEWPTAFNGGFDEKYLAIPEEVLITSMRDHQRFFFVRDQAGKLLPNFISVRNGNEEFIENVVRGNEKVLTARLEDAAFFYEEDQKHDINYYVDRLKKVSFHDKIGSMYEKLQRVNSIAKVIGNTLNLNQTELDDIDRATMIYKFDLVTGMVGEFSELQGVMGEKYAQLNGENQAVAQAIREHYMPNSAEGDLPESVTGAVVALADKFDNIFSFFSAGMIPSGSNDPYALRRHAYGIVRILNSRDWQLDLNQFKSQVKTELAENGTAFGVDVDQNFDQVLNFFNDRIKQLLDHQKISHDIVETVLTGNNHDVTEIIEAAQVLADAKASSTFKDDIEALTRVQRIATKNEESGELNVDPQLFNNASEGELFDQIIKIEAANNLTMSQLFAKLCELTPAISKYFDATMVMDKDENIKRNRLNMMSRLANLILKIGDLTNVLVK | failed
MAIAHTYRRYLDYLRQDRGLAKNSLLVYGPFIRDFLDSHSAGDGSLLPDAFDAVTIRNHLLARSKGRSAEYTRLMAVALRSFCHFLFLRGDTARDLAGSVLEHHHHHH | failed
MAIARHRSFSRAAIELGVSASALSHALKGLETRLGVRLLNRTTKSVTPTAAGEELVQSVLQPFDTIEGALESLNRYRNTPTGRIRINAAVEAANLLLAPVMPAFMDRYPDIEIDIVASNRMVDVTDAGFDAGIRYGGTVPEDMVARRLSADIRWVIAASPDYLERYGTPEHPDDLLHHRCISNRLGDDRVYRWELARDGETYQMTVPGSVTVNHAETGLVAVLGGAGLMYFPEPLVAPYVKDGRLRLVLTEWSPLEEGFHIYYSSRRQLPTGLRLLIEFIQEARPLGL | failed
